In patent US20050158311A1:

How the values were obtained:
Experiment in all cases: cell-based or functional assay
[1] = molecular target: endogenous Ryk of mouse (brain cell lysate; DRG explants) (mouse) (UniProt Q01887)
[2] = molecular target: over-expressed Ryk (from a transfected DNA construct expressing Ryk)
[3] = molecular target: Dishevelled (overexpressed in 293T cells)
[4] = molecular target: endogenous Ryk of 293T cells (human) (UniProt P34925)
Sequence of UniProt P34925 (P34925 26-607 limits assumed): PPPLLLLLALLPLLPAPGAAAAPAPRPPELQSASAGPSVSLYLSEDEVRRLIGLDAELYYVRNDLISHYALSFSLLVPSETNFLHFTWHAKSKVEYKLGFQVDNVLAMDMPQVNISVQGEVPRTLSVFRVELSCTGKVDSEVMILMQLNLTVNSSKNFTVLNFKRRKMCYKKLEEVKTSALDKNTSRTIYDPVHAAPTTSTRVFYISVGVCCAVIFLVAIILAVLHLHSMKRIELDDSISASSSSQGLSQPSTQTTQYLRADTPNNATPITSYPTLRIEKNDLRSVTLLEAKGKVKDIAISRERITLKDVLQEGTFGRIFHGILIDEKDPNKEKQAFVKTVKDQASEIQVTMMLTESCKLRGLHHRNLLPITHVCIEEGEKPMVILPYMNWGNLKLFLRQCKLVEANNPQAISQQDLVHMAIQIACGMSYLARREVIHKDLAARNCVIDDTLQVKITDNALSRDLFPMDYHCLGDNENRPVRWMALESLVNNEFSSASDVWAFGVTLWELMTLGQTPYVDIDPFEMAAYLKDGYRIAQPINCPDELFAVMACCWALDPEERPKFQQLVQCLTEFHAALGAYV

Sequence of UniProt Q01887 (Q01887 35-594 limits assumed): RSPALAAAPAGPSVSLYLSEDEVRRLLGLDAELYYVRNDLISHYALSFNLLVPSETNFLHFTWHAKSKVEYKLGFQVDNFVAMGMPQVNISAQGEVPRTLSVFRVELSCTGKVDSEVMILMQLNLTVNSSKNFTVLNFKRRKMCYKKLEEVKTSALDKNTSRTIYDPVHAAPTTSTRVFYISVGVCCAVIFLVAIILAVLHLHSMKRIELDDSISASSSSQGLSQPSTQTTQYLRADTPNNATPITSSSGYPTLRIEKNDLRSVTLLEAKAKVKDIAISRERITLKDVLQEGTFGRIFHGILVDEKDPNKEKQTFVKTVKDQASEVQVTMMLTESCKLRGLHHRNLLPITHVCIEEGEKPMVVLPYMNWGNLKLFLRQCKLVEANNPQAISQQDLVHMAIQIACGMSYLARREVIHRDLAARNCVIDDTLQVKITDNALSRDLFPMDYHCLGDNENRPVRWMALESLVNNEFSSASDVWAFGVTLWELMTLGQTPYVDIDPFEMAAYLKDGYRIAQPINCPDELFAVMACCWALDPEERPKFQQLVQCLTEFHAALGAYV

Q: With “Wnt3a (Wnt3a conditioned medium) (ligand)” as the molecule, how does the average length of neurites of DRG explants, Ryk siRNA mice against wild type [1] read?
A: Its average length of neurites of DRG explants, Ryk siRNA mice against wild type is 2 fold.

Q: And the activation of the TCF-luciferase reporter [2]?
A: Its activation of the TCF-luciferase reporter is 5 fold.

Q: Which activation of the TCF-luciferase reporter [3] does the source give for “over-expressed Ryk (from a transfected DNA construct expressing Ryk) (receptor)” here?
A: The activation of the TCF-luciferase reporter was 25 fold.

B1: Wnt-1 (cotransfected in the TCF-luciferase reporter assay) (ligand, UniProt P04628 28-370, looked up, species assumed)
Proto-oncogene Wnt-1: ANSSGRWWGIVNVASSTNLLTDSKSLQLVLEPSLQLLSRKQRRLIRQNPGILHSVSGGLQSAVRECKWQFRNRRWNCPTAPGPHLFGKIVNRGCRETAFIFAITSAGVTHSVARSCSEGSIESCTCDYRRRGPGGPDWHWGGCSDNIDFGRLFGREFVDSGEKGRDLRFLMNLHNNEAGRTTVFSEMRQECKCHGMSGSCTVRTCWMRLPTLRAVGDVLRDRFDGASRVLYGNRGSNRASRAELLRLEPEDPAHKPPSPHDLVYFEKSPNFCTYSGRLGTAGTAGRACNSSSPALDGCELLCCGRGHRTRTQRVTERCNCTFHWCCHVSCRNCTHTRVLHECL
Q: Which results are given for B1?
A: activation of the TCF-luciferase reporter [4]: 25 fold; fold decrease in TCF-driven transcription in Ryk siRNA-containing 293T cells [4]: 12 fold
